The results in this text go back to PMC9478954, “Density Control over MBD2 Receptor-Coated Surfaces Provides Superselective Binding of Hypermethylated DNA”.

The target of data set [1] is T1, His10-MBD2 (UniProt Q9UBB5 151-411). The data set is described as follows: QCM; 500 nM DNA; threshold MBD2 density ~88 ng/cm2; up to 61% of bound DNA irreversible; BB: 50 mM Tris, 350 mM NaCl, 0.1% Triton X-100 (pH and temperature of BB not stated); 500 nM DNA, 30 min, QCM 5th overtone; His10MBD2 loaded at 1 uM in IB (50 mM Tris pH 7.2, 300 mM NaCl, 0.1% beta-mercaptoethanol). Conditions: protein: recombinant; tags: N-terminal His10; blunt.
T1 sequence (Q9UBB5 151-411): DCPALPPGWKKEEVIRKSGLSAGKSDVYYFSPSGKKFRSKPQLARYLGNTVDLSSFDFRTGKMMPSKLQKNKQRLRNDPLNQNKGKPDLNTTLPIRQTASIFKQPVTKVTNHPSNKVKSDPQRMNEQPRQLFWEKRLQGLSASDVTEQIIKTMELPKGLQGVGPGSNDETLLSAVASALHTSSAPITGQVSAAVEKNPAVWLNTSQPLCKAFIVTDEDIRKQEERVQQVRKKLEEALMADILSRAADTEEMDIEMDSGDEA

Data set [2] has as its target T1, His10-MBD2. The data set is described as follows: QCM; 500 nM DNA; same trend as Mal5C*pG and Mal3C*pG; plateau between them; BB: 50 mM Tris, 350 mM NaCl, 0.1% Triton X-100 (pH and temperature of BB not stated); 500 nM DNA, 30 min, QCM 5th overtone; His10MBD2 loaded at 1 uM in IB (50 mM Tris pH 7.2, 300 mM NaCl, 0.1% beta-mercaptoethanol). Conditions: protein: recombinant; tags: N-terminal His10; blunt.

B1: Mal5C*pG (dsDNA)
DNA 1: CAGGCAGATGCGCAGCACCAAGCAGAGAGGCCCGGTGCAGGATCCCAGGCCCGAACCAGGCCCGGCTCAGTGGAGCCGGAAGGGGCAGGC
DNA 2: GCCTGCCCCTTCCGGCTCCACTGAGCCGGGCCTGGTTCGGGCCTGGGATCCTGCACCGGGCCTCTCTGCTTGGTGCTGCGCATCTGCCTG
modifications: 5-methyl-C at all CpGs, both strands (M.SssI); top strand C11, C33, C52, C63, C77
Take B1: in data set [1], the binding result is on record as “binds”.

B2: Mal4C*pG (dsDNA)
DNA 1: CAGGCAGATGCGCAGCACCAAGCAGAGAGGCCGGGTGCAGGATCCCAGGCCCCGACCAGGCCAGGCTCAGTGGCGCTGGAAGGGGCAGGC
DNA 2: GCCTGCCCCTTCCAGCGCCACTGAGCCTGGCCTGGTCGGGGCCTGGGATCCTGCACCCGGCCTCTCTGCTTGGTGCTGCGCATCTGCCTG
modifications: 5-methyl-C at all CpGs, both strands (M.SssI); top strand C11, C32, C53, C74
As for B2, the binding result in data set [2] was “binds”.
